Laboratory results: patent US20160002357A1 (Pfizer, published 2016)
Substitutions are numbered along the chain they refer to.

B1: 35 LP-DART (bispecific antibody)
chain 1: QSVLTQPPSVSAAPGQKVTISCSGSSSNIGNNYVSWYQQLPGTAPKLLIYDNNKRPSGIPDRFSGSKSGTSATLGITGLQTGDEADYYCGTWDSSLSAVVFGGGTKLTVLGGGSGGGGEVQLVESGGGLVQPGGSLRLSCAASGFTFSTYAMNWVRQAPGKGLEWVGRIRSKYNNYATYYADSVKGRFTISRDDSKNSLYLQMNSLKTEDTAVYYCVRHGNFGNSYVSWFAYWGQGTLVTVSSGCPPCPAPEAAGAPSVFLFPPKPKDTLMISRTPEVTCVVVDVSHEDPEVKFNWYVDGVEVHNAKTKPREEQYNSTYRVVSVLTVLHQDWLNGKEYKCKVSNKALPAPIEKTISKAKGQPREPQVCTLPPSREEMTKNQVSLWCLVKGFYPSDIAVEWESNGQPENNYKTTPPVLDSDGSFFLYSKLTVDKSRWQQGNVFSCSVMHEALHNHYTQKSLSLSPG
chain 2: QAVVTQEPSLTVSPGGTVTLTCRSSTGAVTTSNYANWVQQKPGQAPRGLIGGTNKRAPWTPARFSGSLLGGKAALTITGAQAEDEADYYCALWYSNLWVFGGGTKLTVLGGGGSGGGGEVQLVQSGAEVKKPGASVKVSCKASGYTFTSYGISWVRQAPGQGLEWMGWISAYNGNTNYAQKLQGRVTMTTDTSTSTAYMELRSLRSDDTAVYYCATIDTASAFDIWGQGTMVTVSSGCPPCPAPEAAGAPSVFLFPPKPKDTLMISRTPEVTCVVVDVSHEDPEVKFNWYVDGVEVHNAKTKPREEQYNSTYRVVSVLTVLHQDWLNGKEYKCKVSNKALPAPIEKTISKAKGQPREPQVYTLPPCREEMTKNQVSLSCAVKGFYPSDIAVEWESNGQPENNYKTTPPVLDSDGSFFLVSKLTVDKSRWQQGNVFSCSVMHEALHNHYTQKSLSLSPG
B2: LP-DART #7 (bispecific antibody)
chain 1: QAVVTQEPSLTVSPGGTVTLTCRSSTGAVTTSNYANWVQQKPGQAPRGLIGGTNKRAPWTPARFSGSLLGGKAALTITGAQAEDEADYYCALWYSNLWVFGGGTKLTVLGGGGSGGGGEVQLVQSGAEVKKPGASVKVSCKASGYTFTSYGISWVRQAPGQGLEWMGWISAYNGNTNYAQKLQGRVTMTTDTSTSTAYMELRSLRSDDTAVYYCATIDTASAFDIWGQGTMVTVSSGEPKSSDKTHTCPPCPAPEAAGAPSVFLFPPKPKDTLMISRTPEVTCVVVDVSHEDPEVKFNWYVDGVEVHNAKTKPREEQYNSTYRVVSVLTVLHQDWLNGKEYKCKVSNKALPAPIEKTISKAKGQPREPQVYTLPPCREEMTKNQVSLSCAVKGFYPSDIAVEWESNGQPENNYKTTPPVLDSDGSFFLVSKLTVDKSRWQQGNVFSCSVMHEALHNHYTQKSLSLSPG
chain 2: QSVLTQPPSVSAAPGQKVTISCSGSSSNIGNNYVSWYQQLPGTAPKLLIYDNNKRPSGIPDRFSGSKSGTSATLGITGLQTGDEADYYCGTWDSSLSAVVFGGGTKLTVLGGGSGGGGEVQLVESGGGLVQPGGSLRLSCAASGFTFNTYAMNWVRQAPGKGLEWVARIRSKYNNYATYYADSVKDRFTISRDDSKNSLYLQMNSLKTEDTAVYYCVRHGNFGNSYVSWFAYWGQGTLVTVSSGEPKSSDKTHTCPPCPAPEAAGAPSVFLFPPKPKDTLMISRTPEVTCVVVDVSHEDPEVKFNWYVDGVEVHNAKTKPREEQYNSTYRVVSVLTVLHQDWLNGKEYKCKVSNKALPAPIEKTISKAKGQPREPQVCTLPPSREEMTKNQVSLWCLVKGFYPSDIAVEWESNGQPENNYKTTPPVLDSDGSFFLYSKLTVDKSRWQQGNVFSCSVMHEALHNHYTQKSLSLSPG
notes: also called P-cadherin LP-DART construct #7 (P-CAD 35, CD3-2)
B3: LP-DART #8 (bispecific antibody)
chain 1: QAVVTQEPSLTVSPGGTVTLTCRSSTGAVTTSNYANWVQQKPGQAPRGLIGGTNKRAPWTPARFSGSLLGGKAALTITGAQAEDEADYYCALWYSNLWVFGGGTKLTVLGGGGSGGGGEVQLVQSGAEVKKPGASVKVSCKASGYTFTSYGISWVRQAPGQGLEWMGWISAYNGNTNYAQKLQGRVTMTTDTSTSTAYMELRSLRSDDTAVYYCATIDTASAFDIWGQGTMVTVSSGGTGGGEPKSSDKTHTCPPCPAPEAAGAPSVFLFPPKPKDTLMISRTPEVTCVVVDVSHEDPEVKFNWYVDGVEVHNAKTKPREEQYNSTYRVVSVLTVLHQDWLNGKEYKCKVSNKALPAPIEKTISKAKGQPREPQVYTLPPCREEMTKNQVSLSCAVKGFYPSDIAVEWESNGQPENNYKTTPPVLDSDGSFFLVSKLTVDKSRWQQGNVFSCSVMHEALHNHYTQKSLSLSPG
chain 2: QSVLTQPPSVSAAPGQKVTISCSGSSSNIGNNYVSWYQQLPGTAPKLLIYDNNKRPSGIPDRFSGSKSGTSATLGITGLQTGDEADYYCGTWDSSLSAVVFGGGTKLTVLGGGSGGGGEVQLVESGGGLVQPGGSLRLSCAASGFTFNTYAMNWVRQAPGKGLEWVARIRSKYNNYATYYADSVKDRFTISRDDSKNSLYLQMNSLKTEDTAVYYCVRHGNFGNSYVSWFAYWGQGTLVTVSSGGTGGGEPKSSDKTHTCPPCPAPEAAGAPSVFLFPPKPKDTLMISRTPEVTCVVVDVSHEDPEVKFNWYVDGVEVHNAKTKPREEQYNSTYRVVSVLTVLHQDWLNGKEYKCKVSNKALPAPIEKTISKAKGQPREPQVCTLPPSREEMTKNQVSLWCLVKGFYPSDIAVEWESNGQPENNYKTTPPVLDSDGSFFLYSKLTVDKSRWQQGNVFSCSVMHEALHNHYTQKSLSLSPG
notes: also called P-cadherin LP-DART construct #8 (P-CAD 35, CD3-2)
B4: LP-DART #1 (bispecific antibody)
chain 1: B1 chain 2 with Y361C, C366S, S378W, A380L, V419Y
chain 2: B1 chain 1 with S148N, G167A, G186D, C368Y, S373C, W385S, L387A, Y426V
notes: also called P-cadherin LP-DART construct #1 (P-CAD 35, CD3-2)
B5: LP-DART #2 (bispecific antibody)
chain 1: QAVVTQEPSLTVSPGGTVTLTCRSSTGAVTTSNYANWVQQKPGQAPRGLIGGTNKRAPWTPARFSGSLLGGKAALTITGAQAEDEADYYCALWYSNLWVFGGGTKLTVLGGGGSGGGGEVQLVQSGAEVKKPGASVKVSCKASGYTFTSYGISWVRQAPGQGLEWMGWISAYNGNTNYAQKLQGRVTMTTDTSTSTAYMELRSLRSDDTAVYYCATIDTASAFDIWGQGTMVTVSSGGTGGCPPCPAPEAAGAPSVFLFPPKPKDTLMISRTPEVTCVVVDVSHEDPEVKFNWYVDGVEVHNAKTKPREEQYNSTYRVVSVLTVLHQDWLNGKEYKCKVSNKALPAPIEKTISKAKGQPREPQVCTLPPSREEMTKNQVSLWCLVKGFYPSDIAVEWESNGQPENNYKTTPPVLDSDGSFFLYSKLTVDKSRWQQGNVFSCSVMHEALHNHYTQKSLSLSPG
chain 2: QSVLTQPPSVSAAPGQKVTISCSGSSSNIGNNYVSWYQQLPGTAPKLLIYDNNKRPSGIPDRFSGSKSGTSATLGITGLQTGDEADYYCGTWDSSLSAVVFGGGTKLTVLGGGSGGGGEVQLVESGGGLVQPGGSLRLSCAASGFTFNTYAMNWVRQAPGKGLEWVARIRSKYNNYATYYADSVKDRFTISRDDSKNSLYLQMNSLKTEDTAVYYCVRHGNFGNSYVSWFAYWGQGTLVTVSSGGTGGCPPCPAPEAAGAPSVFLFPPKPKDTLMISRTPEVTCVVVDVSHEDPEVKFNWYVDGVEVHNAKTKPREEQYNSTYRVVSVLTVLHQDWLNGKEYKCKVSNKALPAPIEKTISKAKGQPREPQVYTLPPCREEMTKNQVSLSCAVKGFYPSDIAVEWESNGQPENNYKTTPPVLDSDGSFFLVSKLTVDKSRWQQGNVFSCSVMHEALHNHYTQKSLSLSPG
notes: also called P-cadherin LP-DART construct #2 (P-CAD 35, CD3-2)
B6: LP-DART #3 (bispecific antibody)
chain 1: B2 chain 1 with Y371C, C376S, S388W, A390L, V429Y
chain 2: B2 chain 2 with C378Y, S383C, W395S, L397A, Y436V
notes: also called P-cadherin LP-DART construct #3 (P-CAD 35, CD3-2)

molecular target: T1, human P-cadherin expressed on the cell surface (human, UniProt P22223 108-829); assay: cell-based or functional assay
T1 sequence (P22223 108-829): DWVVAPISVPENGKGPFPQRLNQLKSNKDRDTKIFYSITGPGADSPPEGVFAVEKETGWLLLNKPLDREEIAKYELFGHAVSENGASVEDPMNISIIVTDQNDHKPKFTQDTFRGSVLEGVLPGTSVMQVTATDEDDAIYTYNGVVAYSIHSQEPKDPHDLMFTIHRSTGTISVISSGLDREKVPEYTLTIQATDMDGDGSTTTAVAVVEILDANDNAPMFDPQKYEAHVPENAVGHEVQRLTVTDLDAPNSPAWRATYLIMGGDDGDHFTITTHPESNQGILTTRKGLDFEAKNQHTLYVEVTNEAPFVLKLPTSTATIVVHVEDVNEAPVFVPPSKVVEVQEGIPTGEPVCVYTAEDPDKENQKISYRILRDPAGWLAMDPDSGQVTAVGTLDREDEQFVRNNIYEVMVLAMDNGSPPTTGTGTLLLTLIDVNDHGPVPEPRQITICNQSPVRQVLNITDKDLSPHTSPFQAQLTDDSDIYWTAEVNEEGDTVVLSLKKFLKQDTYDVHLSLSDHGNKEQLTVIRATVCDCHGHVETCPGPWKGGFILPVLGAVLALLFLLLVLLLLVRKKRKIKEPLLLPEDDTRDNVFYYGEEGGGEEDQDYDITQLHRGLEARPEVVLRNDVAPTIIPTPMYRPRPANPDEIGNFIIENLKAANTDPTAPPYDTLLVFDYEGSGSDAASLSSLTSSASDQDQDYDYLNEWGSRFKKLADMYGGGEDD

Row | Binder | DU145 CTL (LDH) EC50 | HCT116 CTL (Luc) EC50
1 | B1 | 0.0073 nM | 0.107 nM

molecular target: T1, human P-cadherin expressed on the cell …; assay: cell-based or functional assay; remark: another data set of the same source

Row | Binder | T cell Cytotoxicity
2 | B2 | 2.85 nM
3 | B3 | 2.27 nM
4 | B4 | 0.79 nM
5 | B5 | 0.92 nM
6 | B6 | 1.6 nM

molecular target: T2, cynomolgus monkey P-cadherin ECD (cynomolgus monkey); assay: SPR
T2 construct: extracellular domain; also called cyno P-cadherin ECD; Cyno P-cadherin

Row | Binder | Kd
7 | B2 | 96.6 nM
8 | B3 | 104 nM
9 | B4 | 108 nM
10 | B5 | 73.5 nM
11 | B6 | 85.7 nM
